One assay concerns the target T1, mouse IgA (mouse, UniProt P01878 114-344).
T1 sequence (looked up): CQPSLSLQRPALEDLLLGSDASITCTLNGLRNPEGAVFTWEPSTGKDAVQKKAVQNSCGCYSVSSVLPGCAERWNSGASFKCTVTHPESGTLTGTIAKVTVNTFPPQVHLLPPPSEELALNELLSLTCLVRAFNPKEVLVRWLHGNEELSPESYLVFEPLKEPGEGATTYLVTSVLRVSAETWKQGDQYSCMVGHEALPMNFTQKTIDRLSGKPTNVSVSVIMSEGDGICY
The assay can be described thus: biolayer interferometry (Octet RED384), antibody on Protein G biosensor, mouse IgA in solution; antigen concentration not given [c]. As to the method:
(§1) Each antibody (mIANH-2_27 and mIANH-3_79) obtained in the paragraph (4-1) or a PF1 antibody was evaluated for its binding activity against mouse IgA or soluble human IL-6R using Octet RED384 (forteBIO). The binding evaluation was conducted using HBS-EP+Buffer (GE Healthcare Japan Corp.) as a buffer.
(§2) After binding of the antibody to Protein G Biosensors (forteBIO), mouse IgA or soluble human IL-6R was allowed to interact with the antibody on the biosensor through contact therebetween for 120 seconds, and subsequently contacted with the buffer for 120 seconds to measure the antibody-antigen interaction. Then, the biosensor was regenerated through contact with 10 mmol/L glycine-HCl (pH 1.5). The measurement was conducted at 30° C.

The next assay has as its target T2, soluble human plexin A1 (human, UniProt Q9UIW2 27-1244).
T2 construct: also called hPlexin A1; human Plexin A1 extracellular region
The assay can be described thus: biolayer interferometry (Octet RED384), antibody on Protein G biosensor, soluble human plexin A1 in solution; antigen concentration not given [d]. As to the method: (§3) Each antibody (PANH-2_52, PANH-2_68, and PANH-3_10) obtained in the paragraph (4-1) or an anti-human IL-6R antibody PF1 antibody was evaluated for its binding activity against soluble human plexin A1 and soluble human IL-6R using Octet RED384 (forteBIO). The binding evaluation was conducted using HBS-EP+Buffer (GE Healthcare Japan Corp.) as a buffer.
(§4) After binding of the antibody to Protein G Biosensors (forteBIO), soluble human plexin A1 or soluble human IL-6R was allowed to interact with the antibody on the biosensor through contact therebetween for 120 seconds, and subsequently contacted with the buffer for 120 seconds to measure the antibody-antigen interaction. Then, the biosensor was regenerated through contact with 10 mmol/L glycine-HCl (pH 1.5). The measurement was conducted at 30° C.
For orientation: In BLI a coated tip is dipped into the sample, and binding shifts an interference pattern.

For assay [1], the target named is T3, soluble human IL-6R (human, UniProt P08887 20-357).
T3 construct: Analyte in the Octet experiments; also called hIL-6R; soluble hIL-6R
T3 sequence: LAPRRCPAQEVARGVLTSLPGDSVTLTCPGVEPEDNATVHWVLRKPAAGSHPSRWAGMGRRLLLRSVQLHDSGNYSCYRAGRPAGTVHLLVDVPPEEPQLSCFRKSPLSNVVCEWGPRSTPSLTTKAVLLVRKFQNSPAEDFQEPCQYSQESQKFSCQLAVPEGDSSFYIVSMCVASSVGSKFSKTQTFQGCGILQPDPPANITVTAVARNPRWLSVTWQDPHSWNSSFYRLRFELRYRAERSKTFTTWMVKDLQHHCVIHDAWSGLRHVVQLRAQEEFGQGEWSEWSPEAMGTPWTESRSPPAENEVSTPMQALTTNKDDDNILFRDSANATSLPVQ
As to the kind of experiment: biolayer interferometry (Octet RED384), antibody on Protein G biosensor, soluble human IL-6R in solution, 120 s association and 120 s dissociation [d]. As to the method: as §3, §4

For assay [2], the target named is T3, soluble human IL-6R. As to the kind of experiment: biolayer interferometry (Octet RED384), antibody on Protein G biosensor, soluble human IL-6R in solution; antigen concentration not given [b]. As to the method: as §1, §2
Assay [3] concerns the target T3, soluble human IL-6R. As to the kind of experiment: biolayer interferometry (Octet RED384), antibody on Protein G biosensor, soluble human IL-6R in solution; antigen concentration not given [a]. On the procedure:
as §1, §2

For assay [4], the target named is T4, human plexin A1 protein sema domain (from glutamic acid at position 28 to serine at position 514) tagged at … (human, UniProt Q9UIW2 28-514).
T4 construct: also called human plexin A1 sema domain
T4 sequence: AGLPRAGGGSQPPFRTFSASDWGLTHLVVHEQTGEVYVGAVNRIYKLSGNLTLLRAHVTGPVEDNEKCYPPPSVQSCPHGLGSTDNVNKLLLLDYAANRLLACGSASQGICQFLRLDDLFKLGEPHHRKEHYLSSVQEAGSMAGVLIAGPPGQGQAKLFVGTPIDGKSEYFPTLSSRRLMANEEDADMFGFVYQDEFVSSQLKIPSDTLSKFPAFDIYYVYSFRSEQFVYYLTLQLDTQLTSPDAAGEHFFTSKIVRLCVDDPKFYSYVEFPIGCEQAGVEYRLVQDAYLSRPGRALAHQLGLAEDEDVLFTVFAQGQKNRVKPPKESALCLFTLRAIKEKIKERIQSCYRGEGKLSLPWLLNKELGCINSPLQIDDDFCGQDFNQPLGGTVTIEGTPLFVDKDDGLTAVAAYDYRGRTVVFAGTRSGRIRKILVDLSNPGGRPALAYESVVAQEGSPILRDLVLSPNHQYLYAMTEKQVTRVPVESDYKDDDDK
As to the kind of experiment: SPR, Biacore T200; KD against parent antibody hPANLB2-3_342. As to the method:
(§5) Each antibody obtained in the paragraph (10-1) was evaluated for its binding activity against the antigen by surface plasmon resonance (SPR) analysis.
(§6) In the SPR analysis, the antibody was analyzed using Biacore T200 (GE Healthcare Japan Corp.). The anti-human plexin A1 antibody was immobilized onto the surface of Sensor Chip CM4 using Recombinant Protein A/G (Thermo Fisher Scientific Inc.) and Amine Coupling Kit (GE Healthcare Japan Corp.). The antigen used was a human plexin A1 protein sema domain (from glutamic acid at position 28 to serine at position 514) tagged at the C terminus of the protein with FLAG tag. The antigen was prepared as follows: an expression vector carrying a cDNA corresponding to the human plexin A1 sema domain was transferred to FreeStyle 293 cells. After culture, the obtained culture solution was passed through an anti-FLAG-M2 antibody-immobilized affinity column. A fraction eluted with the FALG peptide was purified by gel filtration. The obtained antigen was serially diluted with 20 mM ACES, 150 mM NaCl, 0.05% polysorbate 20, and 1.2 mM CaCl₂ (pH 7.4) and added to the sensor chip at a flow rate of 30 μL/min. In this assay system, the dissociation constant (KD) between the human plexin A1 protein and the anti-human plexin A1 antibody was calculated using data analysis software (BIA T200 Evaluation software ver. 2).
A general note: SPR reads the build-up and loss of mass on a sensor chip optically.

The target of assay [5] is T4, human plexin A1 protein sema domain …. As to the kind of experiment: SPR, Biacore T200; antibody held by Protein A/G on CM4 chip, sema domain as analyte. On the procedure:
as §5, §6

T2 sequence (Q9UIW2 other isoform, or with tags, fused parts or gaps): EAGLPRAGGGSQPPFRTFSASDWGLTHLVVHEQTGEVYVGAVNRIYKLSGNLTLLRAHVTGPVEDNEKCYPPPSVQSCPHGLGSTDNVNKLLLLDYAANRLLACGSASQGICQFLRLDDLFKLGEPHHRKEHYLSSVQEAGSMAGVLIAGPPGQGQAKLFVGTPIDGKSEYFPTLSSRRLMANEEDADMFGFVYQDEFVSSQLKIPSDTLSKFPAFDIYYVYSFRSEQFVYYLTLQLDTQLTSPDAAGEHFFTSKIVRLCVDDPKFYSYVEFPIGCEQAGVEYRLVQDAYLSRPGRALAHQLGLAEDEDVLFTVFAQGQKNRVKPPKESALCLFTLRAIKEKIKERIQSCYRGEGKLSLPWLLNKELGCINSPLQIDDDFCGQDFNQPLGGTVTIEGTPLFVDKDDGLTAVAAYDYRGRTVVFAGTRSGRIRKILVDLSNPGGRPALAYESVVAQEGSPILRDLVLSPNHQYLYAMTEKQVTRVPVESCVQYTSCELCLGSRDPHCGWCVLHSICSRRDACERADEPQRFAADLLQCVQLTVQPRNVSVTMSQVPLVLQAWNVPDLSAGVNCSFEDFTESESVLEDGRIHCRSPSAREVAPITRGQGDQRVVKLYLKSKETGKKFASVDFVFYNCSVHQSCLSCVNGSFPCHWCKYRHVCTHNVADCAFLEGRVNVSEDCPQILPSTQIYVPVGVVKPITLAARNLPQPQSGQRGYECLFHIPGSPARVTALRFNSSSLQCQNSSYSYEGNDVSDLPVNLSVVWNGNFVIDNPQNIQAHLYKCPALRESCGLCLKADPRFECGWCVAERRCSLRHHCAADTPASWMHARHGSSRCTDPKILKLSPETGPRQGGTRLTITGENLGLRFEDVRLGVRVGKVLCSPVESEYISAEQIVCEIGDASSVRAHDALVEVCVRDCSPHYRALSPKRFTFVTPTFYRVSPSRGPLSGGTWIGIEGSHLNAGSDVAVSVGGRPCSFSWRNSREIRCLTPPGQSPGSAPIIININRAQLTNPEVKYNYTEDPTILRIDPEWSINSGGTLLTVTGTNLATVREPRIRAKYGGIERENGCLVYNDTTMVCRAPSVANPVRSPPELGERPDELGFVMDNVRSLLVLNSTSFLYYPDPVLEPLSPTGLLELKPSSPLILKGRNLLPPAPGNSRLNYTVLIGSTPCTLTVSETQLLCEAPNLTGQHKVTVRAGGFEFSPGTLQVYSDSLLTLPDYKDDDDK

B1: PF1 (antibody, human IgG1, kappa, V domains shown)
VH: QVQLQESGPGLVKPSETLSLTCAVSGYSISDDHAWSWVRQPPGEGLEWIGYISYSGITNYNPSLKGRVTISRDTSKNQFSLKLSSVTAADTAAYYCARVLARITAMDYWGEGTLVTVSS
VL: DIQMTQSPSSLSASVGDSVTITCQASQDISSYLNWYQQKPGKAPELLIYYGSELHSGVPSRFSGSGSGTDFTFTISSLEAEDAATYYCGQGNRLPYTFGQGTKVEIER
notes: also called PF1 antibody; anti-IL-6R antibody PF1 antibody
In the case of B1, the binding result is given as “no binding” with mouse IgA, “no binding” with soluble human plexin A1 and “binds” in the assay with soluble human IL-6R [1].

B2: mIANH-3_79 (antibody, human IgG1, kappa, V domains shown)
VH: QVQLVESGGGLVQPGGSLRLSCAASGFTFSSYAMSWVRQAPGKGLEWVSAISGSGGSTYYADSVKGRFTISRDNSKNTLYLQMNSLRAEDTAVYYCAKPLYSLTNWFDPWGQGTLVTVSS
VL: DIQMTQSPSSLSASVGDSVTITCQASQDISSYLNWYQQKPGKAPELLIYYGSELHSGVPSRFSGSGSGTDFTFTISSLEAEDAATYYCGQGNRLPYTFGQGTKVEIER
notes: IgG with the PF1 L chain
Consider B2, for which the binding result with soluble human IL-6R [2] is listed as “no binding”.

B3: mIANH-2_27 (antibody, human IgG1, kappa, V domains shown)
VH: EVQLVQSGAEVKKPGASVKVSCKASGYTFTGYYIHWVRQAPGQGLEWMGRINPNSGGTNYAQKFQGRVTMTRDTSISTAYMQLSRLRSDDTAVYYCARDNSGWGGFDAFDIWGQGTMVTVSS
VL: DIQMTQSPSSLSASVGDSVTITCQASQDISSYLNWYQQKPGKAPELLIYYGSELHSGVPSRFSGSGSGTDFTFTISSLEAEDAATYYCGQGNRLPYTFGQGTKVEIER
notes: IgG with the PF1 L chain
As for B3, the binding result in the assay with soluble human IL-6R [3] is reported as “no binding”.

B4: PLR2H342#009 (antibody, human IgG1, lambda, V domains shown)
VH: EVQLVQSGAEVKKPGASVKVSCKASGYTFTSYGISWVRQAPGQGLEWMGWISAYNGNTNYAQKLQGRVTMTTDTSTSTAYMELRSLRSDDTAVYYCARHAGYYYGMDVWGKGTMVTVSS
VL: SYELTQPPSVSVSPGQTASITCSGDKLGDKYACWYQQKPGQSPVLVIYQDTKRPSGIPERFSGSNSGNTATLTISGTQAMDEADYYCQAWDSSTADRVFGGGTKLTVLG
notes: IgG from the 342H-NL library
A word on the Kd: it is the concentration at which binding is half-saturated. B4: the “Relative KD improvement” value in assay [4] is 19 fold. Also, the equilibrium dissociation constant (Kd) in assay [5] came to 1.82 nM.

The values are drawn from patent US20160264960A1 (Chugai, published 2016).
